Measured values published in article PMC5689134, “Detailed Analysis of Insulin Absorption Variability and the Tissue Response to Continuous Subcutaneous Insulin Infusion Catheter Implantation in Swine” (Diabetes Technology & Therapeutics, 2017).

Assay: Insulin lispro absorption PK after 5-U bolus through CSII catheters in swine
Assay type: in vivo
Settings: for tmax (time-to-peak) / AUC60 (0-60 min after bolus) / Cmax (maximal plasma insulin level) / AUC (0-160 min after bolus, baseline subtracted): mean ± SD; for AUC60 (0-60 min after bolus) / Cmax (maximal plasma insulin level) / AUC (0-160 min after bolus, baseline subtracted): plasma ELISA
Excerpt: We performed an observational study in six swine to evaluate the PK of insulin lispro (U-100 Humalog; Eli Lilly) infused through CSII catheters implanted for 5 days. Six commercial CSII catheters (CCs) and six investigational CSII catheters (ICs) were inserted into the subcutaneous tissue of each swine. Lispro insulin and saline were infused through the CCs and ICs for 5 days using battery powered insulin pumps and the same basal/bolus pattern of delivery. Additional CCs and ICs were filled with saline and capped (Supplementary Table S1; Supplementary Data are available online at www.liebertpub.com/dia). Insulin PK (Cmax, tmax, AUC, AUC60) following a 5-U bolus were evaluated on days 1, 3, and 5. The tissue surrounding the 72 CSII was excised and pathologically analyzed to elucidate the relationship between the PK of insulin absorption and the inflammatory tissue response to trauma and the CSII cannula.
The study was performed in six nondiabetic ambulatory female swine (68.5 ± 3.6 kg). The protocol was approved by the Institutional Animal Care & Use Committee of Thomas Jefferson University. […] The CVC ports were flushed every 1–3 days using a Huber needle and low-dose heparin solution. One week later, each swine was given general anesthesia and six CCs (Inset™; UnoMedical, Denmark) and six ICs were inserted into the subcutaneous tissue of the abdomen using an aseptic technique according to the manufacturer's instructions. In total, 72 CSII were implanted in six swine.
Two CCs and two ICs were connected to insulin pumps (OneTouch Ping; Animas Corporation, West Chester, PA) containing rapid acting lispro insulin. Two CCs and two ICs were connected to insulin pumps containing saline solution. […] CSII were secured with Tegaderm™ adhesive bandages and the eight insulin pumps were secured within the pockets of a custom vest (Lomir Biomedical, Inc., Supplementary Fig. S2). Insulin lispro was continuously infused through the four CSII catheters at a low basal rate (0.2 U/h/catheter = 0.8 U/h). Insulin and saline were infused using the same basal/bolus pattern throughout the 5-day study.
PK studies were performed on days 1, 3, and 5 after CSII insertion. On day 1, animals recovered from general anesthesia for ∼2 h before starting the PK study. Blood was sampled from a CVC every 10 min for ∼2 h, followed by every 15 min for 1 h before administering the second bolus and repeating the sampling schedule. When blood sample acquisition from a CVC was not possible, samples were obtained from the alternate CVC or occasionally omitted. The swine were able to stand up, lie down, and consume food (apples, biscuits) and water during the PK study. The concentration of blood glucose (BG) was measured in duplicate using the YSI analyzer. Samples were centrifuged to plasma and stored at −80°C for subsequent insulin assay. A stable baseline was established for ∼30 min (three to five BG values).
We then infused a 5-U bolus of insulin into a CC or an IC in a randomized order. The concentration of BG was maintained between 100 and 160 mg/dL by adjusting an intravenous infusion of 20% dextrose every 5–10 min for 3 h. A second baseline was then established for ∼30 min to ensure that BG levels have returned to baseline values after the morning insulin bolus, followed by a 5-U bolus of insulin infused into the alternate CSII catheter. The afternoon PK study ended ∼3 h later. Thus, two PK studies were performed on days 1, 3, and 5 in the same swine using the same CC and IC each day.
The concentration of lispro insulin was measured in plasma samples by PreClinOmics, Inc. (Indianapolis, IN) using a porcine insulin ELISA and an Iso-insulin ELISA (Mercodia AB, Uppsala, Sweden). The lispro insulin concentration was calculated by subtracting the porcine insulin from the total insulin concentration. […]

[1] = day 5, 5-U bolus via CC, Mean±SD of swine 2-6 (Table S4), SD
[2] = day 5, 5-U bolus via CC, individual animal: swine 2
[3] = day 5, 5-U bolus via CC, individual animal: swine 3
[4] = day 5, 5-U bolus via CC, individual animal: swine 4
[5] = day 5, 5-U bolus via CC, individual animal: swine 5
[6] = day 5, 5-U bolus via CC, individual animal: swine 6
[7] = day 5, 5-U bolus via IC (pump occlusion alarm during bolus), individual animal: swine 3
[8] = day 5, 5-U bolus via IC (pump occlusion alarm during bolus), individual animal: swine 4
[9] = day 5, 5-U bolus via IC (pump occlusion alarm during bolus), individual animal: swine 5
[10] = day 5, 5-U bolus via IC, Mean±SD of swine 1-6 (Table S4), SD
[11] = day 5, 5-U bolus via IC, individual animal: swine 1
[12] = day 5, 5-U bolus via IC, individual animal: swine 2
[13] = day 5, 5-U bolus via IC, individual animal: swine 6
[14] = swine, 5-U s.c. bolus via CC, day 1, n = 5, SD
[15] = swine, 5-U s.c. bolus via CC, day 3, n = 5, SD
[16] = swine, 5-U s.c. bolus via CC, day 5, n = 5, SD
[17] = swine, 5-U s.c. bolus via IC, day 1, n = 6, SD
[18] = swine, 5-U s.c. bolus via IC, day 3, n = 6, SD
[19] = swine, 5-U s.c. bolus via IC, day 5, n = 6, SD

insulin lispro
Cmax [1]: 114.66±30 mUL | tmax [1]: 12.00 ± 4 min | Cmax [2]: 113.43 mUL | tmax [2]: 10 min | AUC [3]: 119.45 mULh | Cmax [3]: 116.16 mUL | tmax [3]: 20 min | AUC [4]: 57.25 mULh | Cmax [4]: 156.62 mUL | tmax [4]: 10 min | AUC [5]: 48.26 mULh | Cmax [5]: 115.52 mUL | tmax [5]: 10 min | AUC [6]: 54.47 mULh | Cmax [6]: 71.56 mUL | tmax [6]: 10 min | AUC [7]: 54.83 mULh | Cmax [7]: 85.06 mUL | tmax [7]: 30 min | AUC [8]: 100.49 mULh | Cmax [8]: 269.32 mUL | tmax [8]: 20 min | AUC [9]: 57.08 mULh | Cmax [9]: 131.09 mUL | tmax [9]: 10 min | AUC [10]: 40.96±38 mULh | Cmax [10]: 105.08±88 mUL | tmax [10]: 33.33 ± 19 min | AUC [11]: 28.30 mULh | Cmax [11]: 68.17 mUL | tmax [11]: 60 min | AUC [12]: 1.77 mULh | Cmax [12]: 47.10 mUL | tmax [12]: 50 min | AUC [13]: 3.27 mULh | Cmax [13]: 29.76 mUL | tmax [13]: 30 min | Insulin absorption, range between animals (swine, 5-U bolus via IC, day 3, range over six ICs): 9–132 mU/L*h | tmax (time-to-peak) [14]: 35.0 ± 17.3 min | AUC60 (0-60 min after bolus) [14]: 50.9 ± 12.9 mU/L·h | Cmax (maximal plasma insulin level) [14]: 90.7 ± 26.8 mU/L | tmax (time-to-peak) [15]: 20.0 ± 12.2 min | AUC60 (0-60 min after bolus) [15]: 47.0 ± 25.6 mU/L·h | AUC (0-160 min after bolus, baseline subtracted) [15]: 63.1 ± 22.8 mU/L*h | Cmax (maximal plasma insulin level) [15]: 73.9 ± 41.0 mU/L | AUC60 (0-60 min after bolus) [16]: 54.9 ± 20.8 mU/L·h | AUC (0-160 min after bolus, baseline subtracted) [16]: 71.1 ± 29.4 mU/L*h | Cmax (maximal plasma insulin level) [16]: 114.7 ± 30.1 mU/L | tmax (time-to-peak) [17]: 43.3 ± 28.8 min | AUC60 (0-60 min after bolus) [17]: 44.3 ± 23.2 mU/L·h | Cmax (maximal plasma insulin level) [17]: 120.0 ± 59.3 mU/L | tmax (time-to-peak) [18]: 20.0 ± 6.3 min | AUC60 (0-60 min after bolus) [18]: 42.7 ± 40.0 mU/L·h | AUC (0-160 min after bolus, baseline subtracted) [18]: 63.1 ± 51.8 mU/L*h | Cmax (maximal plasma insulin level) [18]: 115.0 ± 86.2 mU/L | AUC60 (0-60 min after bolus) [19]: 29.0 ± 31.3 mU/L·h | AUC (0-160 min after bolus, baseline subtracted) [19]: 40.1 ± 37.6 mU/L*h | Cmax (maximal plasma insulin level) [19]: 105.1 ± 87.7 mU/L | AUC (0-160 min after bolus, baseline subtracted) (swine, 5-U s.c. bolus via commercial CSII catheter (CC), day 1 of wear-time, n = 5 (AUC of swine 6 not calculable), SD): 82.7 ± 37.6 mU/L*h | AUC (0-160 min after bolus, baseline subtracted) (swine, 5-U s.c. bolus via investigational CSII catheter (IC), day 1, n = 6, SD): 68.5 ± 36.0 mU/L*h
